Assay results reported in article PMC4960319, “The anti-sigma factor RsrA responds to oxidative stress by reburying its hydrophobic core” (Nature Communications, 2016).

Tests used:
Details in all cases: both partners purified
[1] = target: T1, σ^R (sigma factor SigR) from Streptomyces coelicolor, residues 5-227, tagless (Streptomyces coelicolor, UniProt Q7AKG9 5-227); test: ITC; RsrA mutants (values in Supplementary Table 1); 35 °C, 50 mM Tris pH 7.5, 100 mM NaCl, 2 mM DTT; direct titration for weaker binding mutants (10 μM RsrA in the cell, 100 μM σ^R in the syringe); RsrA preincubated with ZnCl2 and buffer exchanged where zinc was included
T1 construct: ECF sigma factor σ^R (SigR) of Streptomyces coelicolor, residues 5-227 subcloned into pET21a (NdeI, BamHI) with a C-terminal stop codon; also called wild-type σ^R; source: E. coli BL21(DE3), pET21a, purified without tags (ammonium sulfate, Q-Sepharose, Hi-Load S75)

σR (residues 5-227) [2] = target: T2, σR (residues 5-227) (Streptomyces coelicolor, UniProt Q7AKG9 5-227); test: ITC; with zinc (+), RsrA preincubated with 1 mM ZnCl2 and buffer exchanged; direct titration for weaker binding mutants (methods: 10 μM RsrA in the cell, 100 μM σR in the syringe); 35 °C, 50 mM Tris pH 7.5, 100 mM NaCl, 2 mM DTT; single binding site model
T2 construct: ECF sigma factor σR (SigR) of Streptomyces coelicolor; residues 5-227 subcloned into pET21a with a C-terminal stop codon for tagless expression; also called sigma factor σR; SigR; source: E. coli BL21(DE3), purified without tags (ammonium sulfate precipitation, Q-Sepharose, Hi-Load S75)

σR (residues 5-227) [3] = target: T2, σR (residues 5-227); test: ITC; without zinc (-); direct titration; 35 °C, 50 mM Tris pH 7.5, 100 mM NaCl, 2 mM DTT; single binding site model
σR (residues 5-227) [4] = target: T2, σR (residues 5-227); test: ITC; with zinc (+); 35 °C, 50 mM Tris pH 7.5, 100 mM NaCl, 2 mM DTT; the table does not tell whether this sub-nanomolar value came from a direct or a competition titration
σR Trp88Ile Trp119Ile = target: T3, σR Trp88Ile Trp119Ile (Streptomyces coelicolor, UniProt Q7AKG9 5-227, Trp88Ile | Trp119Ile); test: ITC; competition ITC as for the wild-type complex (Figure 3a): RsrAred.Zn2+ (100 μM) titrated into σR (10 μM, cell) in the presence of 50 μM weak competitor RsrA* Cys11Ser Cys44Ser; 35 °C, 50 mM Tris pH 7.5, 100 mM NaCl, 2 mM DTT
T3 construct: ECF sigma factor σR (SigR) of Streptomyces coelicolor; mutant of the tagless construct of residues 5-227 (all σR mutants were similarly purified); The limits are those of the wild-type construct; source: E. coli BL21(DE3), purified as wild-type σR

Row | Binder | Kd (σR (residues 5-227) [2]) | other results
1 | RsrA* Cys41His (natural protein, Streptomyces coelicolor, UniProt Q7AKG8 1-105, looked up, source: E. coli BL21(DE3) pLysS, purified using a His-tag that was removed by thrombin cleavage; not shown: His-tag, N-terminal, cleaved) MSAGEPHETDCSEILDHLYEFLDKEMPDSDAVKFEHHFEEHSPCLEKYGLEQAVKKLVKRAAGQDDVPGDLRAKVMGRLDLIRSGQSVPEHDVAAAPSSSAPQES |  | binding result [1]: binds
2 | RsrA* C11S (natural protein, Streptomyces coelicolor, UniProt Q7AKG8 1-105, looked up, source: E. coli BL21(DE3) pLysS, purified by a His-tag that was removed by thrombin; not shown: His tag, N-terminal, cleaved) MSAGEPHETDSSEILDHLYEFLDKEMPDSDAVKFEHHFEECSPCLEKYGLEQAVKKLVKRAAGQDDVPGDLRAKVMGRLDLIRSGQSVPEHDVAAAPSSSAPQES | 79 nM | 
3 | RsrA* (natural protein, Streptomyces coelicolor, UniProt Q7AKG8 1-105, looked up, also called RsrA*red.Zn2+; source: E. coli BL21(DE3) pLysS, purified by a His-tag that was removed by thrombin; not shown: His tag, N-terminal, cleaved) MSAGEPHETDCSEILDHLYEFLDKEMPDSDAVKFEHHFEECSPCLEKYGLEQAVKKLVKRAAGQDDVPGDLRAKVMGRLDLIRSGQSVPEHDVAAAPSSSAPQES |  | Kd (σR (residues 5-227) [3]): 183 nM; Kd (σR (residues 5-227) [4]): 0.23 nM
4 | RsrA* C11S C44S (natural protein, Streptomyces coelicolor, UniProt Q7AKG8 1-105, looked up, also called RsrA* Cys11Ser Cys44Ser; source: E. coli BL21(DE3) pLysS, purified by a His-tag that was removed by thrombin; not shown: His tag, N-terminal, cleaved) MSAGEPHETDSSEILDHLYEFLDKEMPDSDAVKFEHHFEECSPSLEKYGLEQAVKKLVKRAAGQDDVPGDLRAKVMGRLDLIRSGQSVPEHDVAAAPSSSAPQES |  | binding result (σR Trp88Ile Trp119Ile): binds

Now from value to binder, other results behind:

Row | Kd (σR (residues 5-227) [2]) | Binder | other results
5 | 297 nM | RsrA* C41S C44S (natural protein, Streptomyces coelicolor, UniProt Q7AKG8 1-105, looked up, source: E. coli BL21(DE3) pLysS, purified by a His-tag that was removed by thrombin; not shown: His tag, N-terminal, cleaved) MSAGEPHETDCSEILDHLYEFLDKEMPDSDAVKFEHHFEESSPSLEKYGLEQAVKKLVKRAAGQDDVPGDLRAKVMGRLDLIRSGQSVPEHDVAAAPSSSAPQES | 
6 | 240 nM | RsrA* C11S C41S (natural protein, Streptomyces coelicolor, UniProt Q7AKG8 1-105, looked up, source: E. coli BL21(DE3) pLysS, purified by a His-tag that was removed by thrombin; not shown: His tag, N-terminal, cleaved) MSAGEPHETDSSEILDHLYEFLDKEMPDSDAVKFEHHFEESSPCLEKYGLEQAVKKLVKRAAGQDDVPGDLRAKVMGRLDLIRSGQSVPEHDVAAAPSSSAPQES | 
7 | 105 nM | RsrA V54A L57A (natural protein, Streptomyces coelicolor, UniProt Q7AKG8 1-105, looked up, also called RsrA Val54Ala Leu57Ala; source: E. coli BL21(DE3) pLysS, purified by a His-tag that was removed by thrombin; not shown: His tag, N-terminal, cleaved) MSCGEPHETDCSEILDHLYEFLDKEMPDSDCVKFEHHFEECSPCLEKYGLEQAAKKAVKRCCGQDDVPGDLRAKVMGRLDLIRSGQSVPEHDVAAAPSSSAPQES | 
8 | 82.1 nM | RsrA V75A L79A (natural protein, Streptomyces coelicolor, UniProt Q7AKG8 1-105, looked up, also called RsrA Val75Ala Leu79Ala; source: E. coli BL21(DE3) pLysS, purified by a His-tag that was removed by thrombin; not shown: His tag, N-terminal, cleaved) MSCGEPHETDCSEILDHLYEFLDKEMPDSDCVKFEHHFEECSPCLEKYGLEQAVKKLVKRCCGQDDVPGDLRAKAMGRADLIRSGQSVPEHDVAAAPSSSAPQES | 
